Values quoted from earlier work in publication PMC3134471.

Biological target: luteinizing hormone receptor (Homo sapiens) (UniProt P22888)
Chain of UniProt P22888 (P22888 27-699): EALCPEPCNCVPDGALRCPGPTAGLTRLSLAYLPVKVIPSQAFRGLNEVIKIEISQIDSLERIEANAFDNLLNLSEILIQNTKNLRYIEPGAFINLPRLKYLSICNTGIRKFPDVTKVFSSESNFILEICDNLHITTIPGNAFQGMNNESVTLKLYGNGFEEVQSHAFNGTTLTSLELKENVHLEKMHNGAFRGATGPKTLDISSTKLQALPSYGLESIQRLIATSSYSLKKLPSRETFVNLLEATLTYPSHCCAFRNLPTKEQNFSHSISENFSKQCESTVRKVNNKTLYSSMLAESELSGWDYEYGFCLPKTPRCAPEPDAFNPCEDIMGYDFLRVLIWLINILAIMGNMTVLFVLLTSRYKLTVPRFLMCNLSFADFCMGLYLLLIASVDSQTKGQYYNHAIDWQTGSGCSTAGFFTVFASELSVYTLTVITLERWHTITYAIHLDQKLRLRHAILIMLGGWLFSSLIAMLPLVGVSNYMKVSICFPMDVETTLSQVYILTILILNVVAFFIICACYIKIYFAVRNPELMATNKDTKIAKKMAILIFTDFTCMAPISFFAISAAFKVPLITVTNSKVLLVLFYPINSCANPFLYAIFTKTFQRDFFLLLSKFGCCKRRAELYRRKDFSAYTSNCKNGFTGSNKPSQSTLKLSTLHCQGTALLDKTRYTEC

## human chorionic gonadotropin (from UniProt P01215)
  Kd: 0.3 nM
